Data from US20140186823, “MUTANT PORES” (OXFORD NANOPORE TECHNOLOGIES LIMITED, published 2014).

Legend:
Conditions in all cases: chain copies: 8 (stated)
MS-(B1-I105Y)8 = MS-(B1-I105Y)8 (Mycobacterium smegmatis, UniProt A0QR29 SEQ:1-184, I105Y); experiment: current range; Phi29 unzipping, +180 mV
Experimental: (§1) The runs were conducted at room temperature at an applied potential of +180 mV. Current levels observed when the DNA is in the enzyme bound state were indexed and the current level, its duration and variance were recorded.
(§2) This pre-incubation mix was added to 900 μL of buffer in the cis compartment of the electrophysiology chamber to initiate capture of the polymerase-DNA complexes in the MspA nanopore (to give final concentrations of DNA=0.5 nM, Enzyme=0.1 μM). Experiments were carried out at a constant potential of +180 mV. Current levels observed when the DNA is in the enzyme bound state were indexed and the current level, its duration and variance were recorded.

MS-(B1-I89Y-D90S)8 = MS-(B1-I89Y-D90S)8 (Mycobacterium smegmatis, UniProt A0QR29 SEQ:1-184, I89Y,N90S); experiment: current range; Phi29 unzipping, +180 mV
Experimental: as §1, §2

MS-(B1-S103G)8 = MS-(B1-S103G)8 (Mycobacterium smegmatis, UniProt A0QR29 SEQ:1-184, S103G); experiment: current range; Phi29 unzipping, +180 mV
Experimental: as §1, §2

MS-(B1-N86T)8 = MS-(B1-N86T)8 (Mycobacterium smegmatis, UniProt A0QR29 SEQ:1-184, N86T); experiment: current range; Phi29 unzipping, +180 mV
Experimental: as §1, §2

MS-(B1-I105L)8 = MS-(B1-I105L)8 (Mycobacterium smegmatis, UniProt A0QR29 SEQ:1-184, I105L); experiment: current range; Phi29 unzipping, +180 mV
Experimental: as §1, §2

MS-(B1-D90Q)8 = MS-(B1-D90Q)8 (Mycobacterium smegmatis, UniProt A0QR29 SEQ:1-184, N90Q); experiment: current range; Phi29 unzipping, +180 mV
Experimental: as §1, §2

MS-(B1-L88S)8 = MS-(B1-L88S)8 (Mycobacterium smegmatis, UniProt A0QR29 SEQ:1-184, L88S); experiment: mean S.D. of current levels (B1 baseline 3.26)
Experimental: as §2

MS-(B1-L88Q)8 = MS-(B1-L88Q)8 (Mycobacterium smegmatis, UniProt A0QR29 SEQ:1-184, L88Q); experiment: mean S.D. of current levels (B1 baseline 3.26)
Experimental: as §2

MS-(B1-L88N)8 = MS-(B1-L88N)8 (Mycobacterium smegmatis, UniProt A0QR29 SEQ:1-184, L88N); experiment: mean S.D. of current levels (B1 baseline 3.26)
Experimental: as §2

B1: FIG. 12 DNA substrate (dsDNA)
DNA 1: TTTTTTTTTTTTTTTTTTTTTCCCCCCCCCCCCCCTATTCTGTTTATGTTTCTTGTTTGTTAGCCCCCTTTGATAAGACAAATACAAAGAACAAACAATCGGCCCTTTAGTGGAGCGAGTGCGAGAGGCGAGCGGTCAA
DNA 2: GTATCTCCATCGCTGTTGACCGCTCGCCTCTCGCACTCGCTCCACTAAAGGGCCGATTGTTTGTTCTTTGTATTTGTCTTATCAAAGGGGGCTAACAAACAAGAAACATAAACAGAATAG
DNA 3: CAGCGATGGAGATAC
modifications: iSp9 and 3' Cholesteryl-TEG on SEQ 23
- activity (MS-(B1-I105Y)8): 45 pA
- activity (MS-(B1-I89Y-D90S)8): 67 pA
- activity (MS-(B1-S103G)8): 54 pA
- activity (MS-(B1-N86T)8): 58 pA
- activity (MS-(B1-I105L)8): 42 pA
- activity (MS-(B1-D90Q)8): 70 pA
- activity (MS-(B1-L88S)8): 3.12
- activity (MS-(B1-L88Q)8): 3.3
- activity (MS-(B1-L88N)8): 3.22
